In publication PMC11637481, “A third dose of inactivated vaccine augments the potency, breadth, and duration of anamnestic responses against SARS-CoV-2” (Protein & Cell, 2024):

B1: XGv016 (antibody, V domains shown)
VH: QVQLVQSGTEVRKPGASVTVSCKASGYTFTTYHMHWVRRAPGQGLEWMGIIDPGTGGASYPQKFRGRVTLTRDTSTNTVYMELSSLRFQDTAIYYCARAEGSSWLGWFDPWGQGTLVTVSS
VL: QSVLTQPPSASGTPGQRVSISCSGSSSNIGTNYVYWYQQLPGTAPKLLIYKNNQRPSGVPDRFSGSKSGTSASLAISGLRSEDEADYFCASWDNGLSGSGWVFGGGTKLTV
B2: XGv013 (antibody, V domains shown)
VH: EVQLVESGGGLVQPGGSLRLSCAASGITVSSNYMTWVRQAPGKGLEWVSVIYAGGSTFYADSVKGRFTISRDNSKNTLYLQMNSLRVEDTAVYYCARDLVDYGMDVWGQGTTVTVSS
VL: DIQLTQSPSFLSASVGDRVTITCRASQGIASYLAWYQQKPGKAPKLLIYAASTLQSGVPTRFSGSGSGTEFTLTIRSLQPEDSATYYCQHPSGHPPTFGGGTKVEI
B3: XGv042 (antibody, V domains shown)
VH: QITLKESGPTLVKPTQTLTLTCTFSGLSMTTSGVGVGWIRQPPGKALEWLALIYWDDDKRYSPFLKSRLTITKDTSKNQVVLTMTNMDPADTGTYFCAHHTIPSIFDHWGQGTLVTVSS
VL: QSALTQPASVSGSPGQSITISCTATSSDVGVYNYVSWYQQYPGKAPRLIIFEVSNRPSGVSSRFSGSKSGYTASLTISGLQTDDEADYYCSSYTTTSTVFGGGTKLTVL
B4: XGv018 (antibody, V domains shown)
VH: QVQLVESGGGVVQPGRSLRLSCAASGFTFSTYGMHWVRQAPGKGLEWVAVILNDGSGKLYADSVKGRFTISRDNSKNTLYLQMSSLRAEDTAVYFCARDQGELVTYFDYWGQGTLVTVSS
VL: DIQMTQSPSSLSASVGDRVTITCRASQSISRYLNWYQHKPGKAPKLLIYTTSNLQSGVPSRFSGSGSGTDFTLTISSLHPEDFATYYCQQSYNTPSWTFGQGTKVEIK
B5: XGv026 (antibody, V domains shown)
VH: EVQLVESGGGVIQPGGSLRLSCAASEIIVSSNYMNWVRQAPGKGLEWVSVIYPGGSSFYADSVKGRFTISRDNSKNTLYLQMNSLRVEDTAVYYCARDSPHRPGTIWGQGTLVVVSS
VL: DIQMTQSPSSLSASVGDRVTITCRASQDINNYLNWYQQKPGKAPKLLIYDAFTLEAGVPSRFSGARFGTDFTFTISSLQPEDIATYYCHQCDNLPCTFGGGTKVEIK
B6: XGv030 (antibody, V domains shown)
VH: EVQLVESGGGLVQPGGSLRLSCAASGFSFSTYSLNWVRQAPGKGLEWVSYISSSSITIYYAHSVKGRFTISRDDAKNSLYLQVNNLRDEDTAVYYCARVLGFSDYVWGSYQRGLYGMDVWGQGTTVSVSS
VL: QSALTQPASVSGSPGQSIAISCTGTSSDVGGYDFVSWYQQHPGKAPKLLIYDVTNRPSGISNRFSGSKSGNTASLTISGLQTEDEADYYCSSFTSSNTLPFVFGTGTTVTVL
B7: XGv038 (antibody, V domains shown)
VH: QVQLVESGGGVVQPGRSLRLSCAASGFTFNNYGIHWVRQAPGKGLEWVAVIWYDGTNKYYADSVKGRFTISRDNSKNTVYLQMNSLRAEDTAVYYCARDYEITMAAPDYWGQGTLVTVSS
VL: DVVMTQSPLSLPVTLEQPASISCRSSQSLVSSDGNTYLNWFQQRPGQSPRRLIYKVSNRDSGVPDRFSGSGSGTDFTLKINRVEAEDVGIYYCMQGSHWPPTFGGGTKVEIK

What follows are binders tested against T1, SARS-CoV-2 receptor-binding domain (RBD), wild type (SARS-CoV-2, wild type (GenBank MN908947), UniProt P0DTC2) (assay: BLI). Settings: both partners purified.
T1 construct: also called WT
B1 was tested, and the Kd was 0.16 nM. B2 gave a Kd of 0.26 nM. For B3, the Kd was 0.16 nM. In the case of B4, the Kd is reported as 0.21 nM. For B5, the Kd was 0.23 nM. With B6 the Kd was 1.3 nM. With B7 the Kd was 0.43 nM.
